Laboratory results from patent publication US20190359693A1.

Assays:
[1] = target: hemagglutinin (HA) of influenza A/Vietnam/1194/04 (H5N1) (influenza A virus A/Vietnam/1194/04 (H5N1)); experiment: cell-based or functional assay
[2] = target: hemagglutinin (HA) of influenza B/Brisbane/60/08 (Victoria lineage) (influenza B virus B/Brisbane/60/08); experiment: cell-based or functional assay
[3] = target: hemagglutinin (HA) of influenza B/Harbin/7/94 (Yamagata lineage) (influenza B virus B/Harbin/7/94); experiment: cell-based or functional assay
[4] = target: hemagglutinin (HA) of influenza A/New Caledonia/20/99 (H1N1) (influenza A virus A/New Caledonia/20/99 (H1N1)); experiment: cell-based or functional assay
[5] = target: hemagglutinin (HA) of influenza A/Brisbane/10/07 (H3N2) (influenza A virus A/Brisbane/10/07 (H3N2)); experiment: cell-based or functional assay
[6] = target: hemagglutinin (HA) of influenza virus H3N2 A/Aichi/2/68 (influenza A virus) (UniProt P03437); experiment: cell-based or functional assay
[7] = target: hemagglutinin (HA) of influenza virus H5N1 A/PR8 H5N1 HK97 (influenza A virus); experiment: cell-based or functional assay
[8] = target: hemagglutinin (HA) of influenza virus H1N1 A/Christchurch/16/10 (influenza A virus); experiment: cell-based or functional assay
[9] = target: hemagglutinin (HA) of influenza virus H7N9 A/Anhui/1/13 (influenza A virus); experiment: cell-based or functional assay
[10] = target: hemagglutinin (HA) of influenza virus B/Massachusetts/02/12 (Yamagata) (influenza B virus); experiment: cell-based or functional assay
[11] = target: hemagglutinin (HA) of influenza virus H1N1 A/California/07/09 (influenza A virus); experiment: cell-based or functional assay
[12] = target: hemagglutinin (HA) of influenza virus B/Florida/04/06 (Yamagata) (influenza B virus); experiment: cell-based or functional assay
[13] = target: hemagglutinin (HA) of influenza virus B/Harbin/7/94 (Yamagata) (influenza B virus); experiment: cell-based or functional assay
[14] = target: hemagglutinin (HA) of influenza virus B/Lee/40 (Old) (influenza B virus) (UniProt P03460); experiment: cell-based or functional assay
[15] = target: hemagglutinin (HA) of influenza virus H3N2 A/Johannesburg/33/94 (influenza A virus); experiment: cell-based or functional assay
[16] = target: hemagglutinin (HA) of influenza virus H9N2 A/HK/466419/09 (influenza A virus); experiment: cell-based or functional assay
[17] = target: hemagglutinin (HA) of influenza virus H1N1 A/Brisbane/59/07 (influenza A virus); experiment: cell-based or functional assay
[18] = target: hemagglutinin (HA) of influenza virus H1N1 A/WSN/33 (influenza A virus) (UniProt P03454); experiment: cell-based or functional assay
[19] = target: hemagglutinin (HA) of influenza virus H1N1 A/Mississippi/03/01 274H (influenza A virus); experiment: cell-based or functional assay
[20] = target: hemagglutinin (HA) of influenza virus H11N9 A/Northern Pintail/MPC2085/07 (influenza A virus); experiment: cell-based or functional assay
[21] = target: hemagglutinin (HA) of influenza virus H3N2 A/Perth/16/09 (influenza A virus); experiment: cell-based or functional assay
[22] = target: hemagglutinin (HA) of influenza virus H1N1 A/Solomon Islands/3/2006 (IVR 145) (influenza A virus); experiment: cell-based or functional assay
[23] = target: hemagglutinin (HA) of influenza virus H8N4 A/Eurasian Wigeon/MPH571/08 (influenza A virus); experiment: cell-based or functional assay
[24] = target: hemagglutinin (HA) of influenza virus H6N1 A/Eurasian Wigeon/MPG1884/09 (influenza A virus); experiment: cell-based or functional assay
[25] = target: hemagglutinin (HA) of influenza virus H3N2 A/Victoria/210/09 (influenza A virus); experiment: cell-based or functional assay
[26] = target: hemagglutinin (HA) of influenza virus H10N7 A/Chick/Germany/N/49 (influenza A virus); experiment: cell-based or functional assay
[27] = target: hemagglutinin (HA) of influenza virus H1N1 A/Puerto Rico/8/34-MA (influenza A virus); experiment: cell-based or functional assay
[28] = target: hemagglutinin (HA) of influenza virus H7N3 A/NIBRG/60 (A/mallard/Netherlands/12/00) (influenza A virus); experiment: cell-based or functional assay
[29] = target: hemagglutinin (HA) of influenza virus B/Brisbane/60/08 (Victoria) (influenza B virus); experiment: cell-based or functional assay
[30] = target: hemagglutinin (HA) of influenza virus H2N2 A/Guiyang/1/57 (influenza A virus); experiment: cell-based or functional assay
[31] = target: hemagglutinin (HA) of influenza virus H3N2 A/Hiroshima/52/05 (influenza A virus); experiment: cell-based or functional assay
[32] = target: hemagglutinin (HA) of influenza virus H1N1 A/New Caledonia/20/99 (influenza A virus); experiment: cell-based or functional assay
[33] = target: hemagglutinin (HA) of influenza virus H7N7 A/PR8 H7N7-NY (influenza A virus); experiment: cell-based or functional assay
[34] = target: hemagglutinin (HA) of influenza virus H5N1 A/Vietnam/1194/04 (influenza A virus); experiment: cell-based or functional assay
[35] = target: hemagglutinin (HA) of influenza virus H3N2 A/Brisbane/10/07 (influenza A virus); experiment: cell-based or functional assay
[36] = target: hemagglutinin (HA) of influenza virus H4 A/WF/HK/MPA892/06 (influenza A virus); experiment: cell-based or functional assay
[37] = target: hemagglutinin (HA) of influenza virus H3N2 A/Panama/2007/99 (influenza A virus); experiment: cell-based or functional assay
[38] = target: hemagglutinin (HA) of influenza virus B/Malaysia/2506/04 (Victoria) (influenza B virus); experiment: cell-based or functional assay
[39] = target: hemagglutinin (HA) of influenza virus H14N5 A/Mallard/Astrakhan/263/1982 (influenza A virus); experiment: cell-based or functional assay
[40] = target: hemagglutinin (HA) of influenza virus H3N2 A/Wisconsin/67/05 (influenza A virus); experiment: cell-based or functional assay
[41] = target: hemagglutinin (HA) of influenza virus H3N2 A/Fukui/45/04 (influenza A virus); experiment: cell-based or functional assay
[42] = target: hemagglutinin (HA) of influenza virus H3N2 A/HK/1/68-MA (influenza A virus); experiment: cell-based or functional assay
[43] = target: hemagglutinin (HA) of influenza virus H7N9 A/Shanghai/2/13 (influenza A virus); experiment: cell-based or functional assay
[44] = target: HA of H7N3 A/NIBRG/60 (A/mallard/NL/12/00) (influenza A virus); experiment: cell-based or functional assay
[45] = target: HA of H3N2 A/Brisbane/10/2007 (influenza A virus); experiment: cell-based or functional assay
[46] = target: HA of H5N1 A/Vietnam/1194/04 (influenza A virus); experiment: cell-based or functional assay
[47] = target: HA of H1N1 A/Puerto Rico/8/34-MA (influenza A virus); experiment: cell-based or functional assay
[48] = target: HA of H3N2 A/HK/1/68-MA (influenza A virus); experiment: cell-based or functional assay
[49] = target: HA of H1N1 A/New Caledonia/20/1999 (influenza A virus); experiment: cell-based or functional assay
[50] = target: HA of H1N1 A/Brisbane/59/07 (influenza A virus); experiment: cell-based or functional assay
[51] = target: hemagglutinin (HA) of influenza virus H2N2 A/WF/HK/MPU3156/05 (influenza A virus); experiment: cell-based or functional assay
[52] = target: HA of B/Brisbane/60/2008 (Victoria) (influenza B virus); experiment: cell-based or functional assay
[53] = target: HA of B/Florida/04/2006 (Yamagata) (influenza B virus); experiment: cell-based or functional assay
[54] = target: HA of H7N3 A/NIBRG/60 (A/mallard/NL/12/00) (influenza A virus); experiment: BLI steady state
[55] = target: HA of H3N2 A/Brisbane/10/2007 (influenza A virus); experiment: BLI steady state
[56] = target: HA of B/Lee/40 (influenza B virus) (UniProt P03460); experiment: cell-based or functional assay
[57] = target: HA of B/Harbin/7/94 (Yamagata) (influenza B virus); experiment: cell-based or functional assay
[58] = target: HA of B/Malaysia/2506/04 (Victoria) (influenza B virus); experiment: cell-based or functional assay

TIFGIRVNTMG (Fc fusion) [FM1W3]
Average neutralization titers [1]: 10 nM
Average neutralization titers [2]: 16 nM
Average neutralization titers [3]: 8 nM
Average neutralization titers [4]: 6 nM
Average neutralization titers [5]: 16 nM

B1: MD2501 (bispecific antibody)
chain: EVQLVESGGGLVQPGGSLRLSCAVSISIFDIYAMDWYRQAPGKQRDLVATSFRDGSTNYADSVKGRFTISRDNAKNTLYLQMNSLKPEDTAVYLCHVSLYRDPLGVAGGMGVYWGKGALVTVSSGGGGSGGGGSEVQLVESGGGLVQPGGSLRLSCAVSISIFDIYAMDWYRQAPGKQRDLVATSFRDGSTNYADSVKGRFTISRDNAKNTLYLQMNSLKPEDTAVYLCHVSLYRDPLGVAGGMGVYWGKGALVTVSSGGGGSGGGGSEVQLVESGGGLVQAGGSLKLSCAASGRTYAMGWFRQAPGKEREFVAHINALGTRTYYSDSVKGRFTISRDNAKNTEYLEMNNLKPEDTAVYYCTAQGQWRAAPVAVAAEYEFWGQGTQVTVSSGGGGSGGGGSEVQLVESGGGLVQPGGSLRLSCAATGFTLENKAIGWFRQTPGSEREGVLCISKSGSWTYYTDSMRGRFTISRDNAENTVYLQMDSLKPEDTAVYYCATTTAGGGLCWDGTTFSRLASSWGQGTQVTVSSGGGGSGGGGSEVQLVESGGGLVQPGGSLKLSCAASGFTFSTSWMYWLRQAPGKGLEWVSVINTDGGTYYADSVKDRFTISRDNAKDTLYLQMSSLKSEDTAVYYCAKDWGGPEPTRGQGTQVTVSS
average neutralization titer [6]: 12.6 nM
average neutralization titer [7]: 4.9 nM
average neutralization titer [8]: 1.3 nM
average neutralization titer [9]: 73.8 nM
average neutralization titer [10]: 4 nM
average neutralization titer [11]: 3 nM
average neutralization titer [12]: 8.3 nM
average neutralization titer [13]: 4.3 nM
average neutralization titer [14]: 14.6 nM
average neutralization titer [15]: 11.6 nM
average neutralization titer [16]: 16 nM
average neutralization titer [17]: 3 nM
average neutralization titer [18]: 2.9 nM
average neutralization titer [19]: 4.9 nM
average neutralization titer [20]: 16 nM
average neutralization titer [21]: 5.7 nM
average neutralization titer [22]: 3.9 nM
average neutralization titer [23]: 16 nM
average neutralization titer [24]: 16 nM
average neutralization titer [25]: 5.8 nM
average neutralization titer [26]: 14.9 nM
average neutralization titer [27]: 8.5 nM
average neutralization titer [28]: 13.8 nM
average neutralization titer [29]: 5 nM
average neutralization titer [30]: 19.9 nM
average neutralization titer [31]: 6.5 nM
average neutralization titer [32]: 4.8 nM
average neutralization titer [33]: 14 nM
average neutralization titer [34]: 6.5 nM
average neutralization titer [35]: 9.6 nM
average neutralization titer [36]: 3.9 nM
average neutralization titer [37]: 18.1 nM
average neutralization titer [38]: 8.8 nM
average neutralization titer [39]: 15.6 nM
average neutralization titer [40]: 14.1 nM
average neutralization titer [41]: 21.2 nM
average neutralization titer [42]: 19 nM
average neutralization titer [43]: 36.5 nM

B2: SD1025 (VHH)
VHH: EVQLVESGGGLVQAGGSLRLSCAASGRTYAMAWFRQAPGKEREFVAHINALGTRTYYSDSVQGRFTISRDNAKNTEYLQMNSLKPEDTAVYYCAAGGQWRAAPVADAAQYDFWGQGTQVTVSS
VNA titer [44]: 52 nM
VNA titer [45]: > 1000 nM
VNA titer [46]: > 1000 nM
VNA titer [47]: > 1000 nM
VNA titer [48]: > 1000 nM
VNA titer [49]: > 1000 nM
VNA titer [50]: > 1000 nM

B3: MD2312 (bispecific antibody)
chain: EVQLVESGGGLVQAGDSLRLSCAASGPTFGMSAMGWFRQAPGKEREFVAAISGLGNPNYSDDVKGRFTISRENGRNTVYLQMNSLKPEDTAVYYCAQRKVYHVQGGDRPQAYDYWGQGTQVTVSSGGGGSGGGGSEVQLVESGGGLVQAGDSLRISCAASGRTLSIYSMGWFRQAPGKEREFVATIGWNSGRTFYPDSLKGRFTISRDNARNTLYLQMNNLRPEDTAVYYCAAAKGPLRLSSQADYWGQGTQVTVSSGGGGSGGGGSEVQLVESGGGLVQPGGSLRLSCAATGFTLENKAIGWFRQTPGSEREGVLCISKSGSWTYYTDSMRGRFTISRDNAENTVYLQMDSLKPEDTAVYYCATTTAGGGLCWDGTTFSRLASSWGQGTQVTVSS
average neutralization titer [9]: 43.2 nM
average neutralization titer [28]: 7.7 nM
average neutralization titer [30]: < 1000 nM
average neutralization titer [34]: 5.8 nM
average neutralization titer [51]: 21.6 nM
average neutralization titer [35]: 18.1 nM

B4: SD1048 (VHH)
VHH: EVQLVESGGGVVQPGGSLRLSCVASGRTSSMYSIGWFRQAPGKEREFVAVIGWYSGRTFYTDSMKGRFTISRDNARNTVYLQMNSLKPEDTAVYYCAAANGPLRLSNQADYWGQGTQVTVSS
VNA titer [44]: 20.6 nM
VNA titer [52]: > 1000 nM
VNA titer [45]: 19.5 nM
VNA titer [46]: > 1000 nM
VNA titer [53]: > 1000 nM
VNA titer [49]: > 1000 nM
VNA titer [50]: > 1000 nM
Kd [54]: 3 nM
Kd [55]: 3 nM

B5: SD2086 (VHH)
VHH: EVQLVESGGGLVQAGGSLRLSCATSGQTFSSYAMGWFRQAPGKEREFVAAISWNGGSTYYADSVKGRFTISRESPENLVYLQMNSLKPEDTAVYYCAARGAYYTGSYYLGSTYDYWGQGTQVTVSS
VNA titer [56]: 273 nM
VNA titer [57]: 964 nM
VNA titer [58]: 546 nM
VNA titer [52]: 934 nM
VNA titer [53]: 815 nM
